The assay addresses T1, Streptavidin (streptavidin column) (UniProt P22629 37-163, limits assumed).
T1 construct: Immobilised on column matrix
Nature of the assay: affinity column (streptavidin column without kappa).

T1 sequence (P22629 37-163 limits assumed): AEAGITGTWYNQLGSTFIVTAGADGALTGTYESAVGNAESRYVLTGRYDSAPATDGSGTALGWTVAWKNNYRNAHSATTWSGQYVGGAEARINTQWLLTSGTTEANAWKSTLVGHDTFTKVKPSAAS

B1: LHL (growth factor comprising H flanked by two L molecules) (designed binder)
chain: MKKTAIAIAVALAGFATVAQAAPKDNTEEVTIKANLIFANGSTQTAEFKGTFEKATSEAYAYADTLKKDNGEYTVDVADKGYTLNIKFAGKEATNRNTDGSTDYGILQINSRWGGLTLKEEVTIKANLIFANGSTQTAEFKGTFEKATSEAYAYADTLKKDNGEYTVDVADKGYTLNIKFAG
notes: also called LIIL [sic]
Consider B1, for which the binding result is listed as “no binding”.

The values are drawn from patent US20030148484A1 (published 2003).
